Source: patent US20060286609A1 (BIOCHECK, published 2006)

T1: Mouse Id1: Histidine (mouse, UniProt P20067-2 1-148)
T1 construct: E. coli fusion protein (vector pGW07); also called m-Id1-His; not shown: His-tag
T1 sequence: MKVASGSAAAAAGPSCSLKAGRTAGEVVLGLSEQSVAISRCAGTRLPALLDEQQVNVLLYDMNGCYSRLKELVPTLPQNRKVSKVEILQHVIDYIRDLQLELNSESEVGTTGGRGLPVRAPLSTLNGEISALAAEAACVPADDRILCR

T2: Human Id2: Histidine (human, UniProt Q02363 1-134, limits assumed)
T2 construct: E. coli fusion protein (vector pGW07); also called h-Id2: His; not shown: His-tag
T2 sequence (looked up): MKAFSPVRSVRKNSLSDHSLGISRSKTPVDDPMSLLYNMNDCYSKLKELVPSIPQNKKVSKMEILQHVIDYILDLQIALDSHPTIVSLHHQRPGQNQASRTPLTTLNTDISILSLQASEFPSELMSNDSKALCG

T3: Human Id3: Histidine (human, UniProt Q02535 1-119, limits assumed)
T3 construct: E. coli fusion protein (vector pGW07); also called h-Id3: His; not shown: His-tag
T3 sequence (looked up): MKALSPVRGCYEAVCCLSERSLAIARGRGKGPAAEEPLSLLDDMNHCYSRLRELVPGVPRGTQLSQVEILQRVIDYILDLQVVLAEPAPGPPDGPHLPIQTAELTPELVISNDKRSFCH


Key:
[1] = target: Human Id1: Histidine (human) (UniProt P41134); experiment: sandwich ELISA, 5-3-coated wells, human Id1:His 25.0 ng/ml, detected with rabbit polyclonal B-5133-HRP
[2] = target: T4, glutathione S-transferase (GST) (UniProt P08515 1-218 = GST); experiment: ELISA, coated antigen, Ab 0 ug/ml (blank)
T4 construct: Coated on wells as control for the fusion partner of the immunogen
Experimental: (§1) Incubate plates at 2-8° C. overnight (16-24 hours). [0145] 11. Shake off the BSA solution. [0146] 12. Dispense 250 μL of 2.5% sucrose solution into each well. [0147] 13. Incubate plates at 2-8° C. for 4 hours. [0148] 14. Shake off sucrose solution. [0149] 15. Dry in vacuum at room temperature overnight. Screening Method [0150] 1. Dispense 100 μL of antibody diluent, diluted rabbit polyclonal anti-Id1 into appropriate wells. […] 2. Incubate at room temperature with mechanical shaking at 750 rpm for 90 minutes. [0152] 3. Remove the incubation mixture by flicking plate content into an appropriate waste container, followed by rinsing the wells 5 times with distilled water. […] 4. Strike the wells sharply onto absorbent paper or paper towels to remove all residual water droplets. [0154] 5. Dispense 100 μL of Goat Anti-Rabbit IgG-HRP Conjugate Reagent into each well. Gently mix for 5 seconds. [0155] 6. Incubate at room temperature with mechanical shaking at 750 rpm for 90 minutes. […] 7. Repeat procedures 3 and 4. [0157] 8. Dispense 100 μL of TMB Reagent into each well. Gently mix for 5 seconds. [0158] 9. Incubate at room temperature with mechanical shaking at 750 rpm for 20 minutes. [0159] 10. Add 100 μL of Stop Solution (1N HCl) into each well. [0160] 11. Gently mix for 10 seconds to ensure a complete mixing. […] 12. Read optical density (absorbance) at 450 nm. Results from this assay were used to select the rabbit sera with the highest antibodies titer that selectively reacts with mouse Id1 or human Id1 or both.
(§2) A comparison was carried out between the reactivity of the rabbit monoclonal anti-mouse Id1, clone #BCH-1/#37-2, of this invention and the mouse monoclonal anti-mouse/human Id1 from BD Pharmingen with the following antigens prepared in Example 5: mouse Id1:His, human Id1:His, human Id2:His, human Id3:His, and GST. These antigens and protein were used to coat the wells.
(§3) Materials and methods were those described in Example 9 except (a) Pharmingen's mouse monoclonal anti-mouse Id1 was used in addition to the rabbit monoclonal anti-mouse Id1 (Example 10), and (b) goat anti-mouse IgG-HRP conjugate was used to process the wells treated with the Pharmingen monoclonal antibody and polyclonal goat anti-rabbit IgG-HRP conjugate was used to process wells treated with rabbit monoclonal anti-mouse Id1.

Mouse Id1: Histidine = target: T1, Mouse Id1: Histidine; experiment: ELISA, coated antigen, Ab 0 ug/ml (blank)
Experimental: as §1, §2, §3

Human Id2: Histidine = target: T2, Human Id2: Histidine; experiment: ELISA, coated antigen, Ab 0 ug/ml (blank)
Experimental: as §1, §2, §3

Human Id3: Histidine = target: T3, Human Id3: Histidine; experiment: ELISA, coated antigen, Ab 0 ug/ml (blank)
Experimental: as §1, §2, §3

[3] = target: Human Id1: Histidine (human) (UniProt P41134); experiment: ELISA, coated antigen, Ab 0.50 ug/ml

Chain of Human Id1: Histidine (human) (P41134 whole entry): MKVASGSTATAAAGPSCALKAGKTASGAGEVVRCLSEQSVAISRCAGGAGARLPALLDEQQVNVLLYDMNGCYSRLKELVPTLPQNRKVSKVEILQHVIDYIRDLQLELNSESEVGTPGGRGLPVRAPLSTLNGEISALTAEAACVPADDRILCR
T4 sequence (P08515 whole entry, the tested form may be a part): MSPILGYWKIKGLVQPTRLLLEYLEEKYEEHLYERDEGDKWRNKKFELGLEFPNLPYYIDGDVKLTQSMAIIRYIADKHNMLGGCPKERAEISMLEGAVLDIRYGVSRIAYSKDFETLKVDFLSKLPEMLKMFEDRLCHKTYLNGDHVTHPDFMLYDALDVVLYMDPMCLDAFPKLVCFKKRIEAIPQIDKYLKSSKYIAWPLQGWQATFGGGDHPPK

Molecule	A450 [1]	A450 [2]	A450 (Mouse Id1: Histidine)	A450 (Human Id2: Histidine)	A450 (Human Id3: Histidine)	A450 [3]
rabbit monoclonal anti-human Id1, clone #BCH-2/#5-3 (antibody)	1.94 A450	–	–	–	–	–
rabbit monoclonal anti-mouse Id1, clone #BCH-1/#37-2 (antibody, V domains shown, Rabbit IgG from hybridoma, Protein G purified; also called m Id1 MoAb 37-2; Rabbit Monoclonal Anti-Mouse Id1 (#37-2)) VH: QSVEESGGRLVTPGTPLTLTCKVSGFDINSYAMDWFRQAPGKGLEWIGMMSTRGNTYYTSWAKGRFTISKTSSTTVDLKMTSLTTEDTATYFCARGGLWGPGTLVTVSS VL: RVLTQTASPVSAAVGGTVTINCQASQSVYNGNRLGWYQLKPGQSPKELIHDASTLASGVPSRFRGSGSGTQFTLTINDVQCDDAATYYCVGSYACSTGDCNVFGGGTEVVVK	–	0.047 A450	0.047 A450	0.045 A450	0.046 A450	0.091 A450
